What was measured:
[1] = target: human TIM3 (isoform 1), membrane bound (human) (UniProt Q8TDQ0); experiment: flow cytometry, lung cancer TILs, CD4+ cells (upper panel), isotype staining
[2] = target: human TIM3 (isoform 1), membrane bound (human) (UniProt Q8TDQ0); experiment: flow cytometry, lung cancer TILs, CD8+ cells (lower panel), isotype staining
[3] = target: mouse TIM3 (mouse) (UniProt Q8VIM0); experiment: binding to activated mouse T cells (method not given)
Sequence of mouse TIM3 (mouse) (Q8VIM0 20-281): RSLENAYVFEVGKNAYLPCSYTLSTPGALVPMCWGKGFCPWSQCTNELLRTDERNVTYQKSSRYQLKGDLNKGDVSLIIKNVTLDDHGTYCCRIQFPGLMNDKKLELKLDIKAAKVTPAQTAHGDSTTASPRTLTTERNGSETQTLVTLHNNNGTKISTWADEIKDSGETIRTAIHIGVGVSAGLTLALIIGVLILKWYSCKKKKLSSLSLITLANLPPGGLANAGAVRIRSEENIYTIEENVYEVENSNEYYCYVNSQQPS

| Substance | % of cells in the quadrant PE isotype positive, APC isotype negative [1] [%] | % of cells in the quadrant PE isotype positive, APC isotype negative [2] [%] | EC50 [3] [nM] | fold weaker EC50 than TIM3.18 binding to human TIM-3 [3] [fold] |
| --- | --- | --- | --- | --- |
| Isotype (Comp-PE-A :: Isotype) (antibody) | 2.94 | 3.09 |  |  |
| rat anti-mouse TIM-3 antibody RMT3-23 |  |  | 1.7 | 17 |

From patent publication US20240209083A1
